Measured values: PMC8902471
Numbering of substitutions follows the chain as printed.

How the values were obtained:
Test in all cases: EMSA
Ets-1 ΔN301 MT4 = target: T1, Ets-1 ΔN301 MT4 (Mus musculus (murine), UniProt P27577 301-440, W338A)
T1 sequence: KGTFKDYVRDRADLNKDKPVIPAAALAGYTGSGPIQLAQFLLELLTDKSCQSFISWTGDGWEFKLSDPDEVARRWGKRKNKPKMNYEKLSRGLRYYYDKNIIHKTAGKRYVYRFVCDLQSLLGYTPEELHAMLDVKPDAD

Ets-1 ΔN301 MT3 = target: T2, Ets-1 ΔN301 MT3 (Mus musculus (murine), UniProt P27577 301-440, L337A)
T2 sequence: T1 sequence with L37A, A38W

Ets-1 ΔN301 MT2 = target: T3, Ets-1 ΔN301 MT2 (Mus musculus (murine), UniProt P27577 301-440, L393A;Y396A)
T3 sequence: T1 sequence with A38W, L93A, Y96A

Ets-1 ΔN301 MT1 = target: T4, Ets-1 ΔN301 MT1 (Mus musculus (murine), UniProt P27577 301-440, L337A;W338A)
T4 sequence: T1 sequence with L37A

Measured: binding result

B1: 27-bp high-affinity ETS site DNA (dsDNA)
DNA 1: TCGACGGCCAAGCCGGAAGTGAGTGCC
DNA 2: TCGAGGCACTCACTTCCGGCTTGGCCG
no binding: all assays above
